# Test results published in US20140087995A1 (published 2014).
# Numbered stars: 1 amine (or outer) side, 2 acyl side, 3 side chain; on linkers, the order of the positions; unused ones are H or OH. Bridge positions count the residues as written; N and C are the ends. Side chains are listed from the residue outwards. Ends that are not written are not given here. * marks the point of attachment. C20 diacid = O=C(O)CCCCCCCCCCCCCCCCCCC(=O)*; γGlu = O=C(O)[C@H](CCC(=O)[*:2])N[*:1]; AEEA = NCCOCCOCC(=O)O
# B1: N^α1-[2-[2-[2-[[2-[2-[2-[[(4S)-4-carboxy-4-(19-carboxynonadecanoylamino)butanoyl]amino]ethoxy]ethoxy]acetyl]amino]ethoxy]ethoxy]acetyl]-[Arg17,Pro21,Pro27]-h-am … (peptide)
# peptide: KCNTATCATQRLANFLRHSSPNFGAIPSSTNVGSNTY
# modifications: C20 diacid-gGlu-2xOEG on alpha amino group of N-terminal Lys 1; disulfide Cys2-Cys7; C-terminal amide (as human amylin)
# notes: also called compound 24
# B2: N^ε1-[2-[2-[2-(19-carboxynonadecanoylamino)ethoxy]ethoxy]acetyl]-[Arg17,Pro21,Pro27]-h-amylin (peptide)
# peptide: K([AEEA-C20 diacid])CNTATCATQRLANFLRHSSPNFGAIPSSTNVGSNTY-NH2
# modifications: disulfide 2-7; N-terminus assumed
# SMILES: CC[C@H](C)[C@H](NC(=O)[C@H](C)NC(=O)CNC(=O)[C@H](Cc1ccccc1)NC(=O)[C@H](CC(N)=O)NC(=O)[C@@H]1CCCN1C(=O)[C@H](CO)NC(=O)[C@H](CO)NC(=O)[C@H](Cc1c[nH]cn1)NC(=O)[C@H](CCCNC(=N)N)NC(=O)[C@H](CC(C)C)NC(=O)[C@H](Cc1ccccc1)NC(=O)[C@H](CC(N)=O)NC(=O)[C@H](C)NC(=O)[C@H](CC(C)C)NC(=O)[C@H](CCCNC(=N)N)NC(=O)[C@H](CCC(N)=O)NC(=O)[C@@H](NC(=O)[C@H](C)NC(=O)[C@@H]1CSSC[C@H](NC(=O)[C@@H](N)CCCCNC(=O)COCCOCCNC(=O)CCCCCCCCCCCCCCCCCCC(=O)O)C(=O)N[C@@H](CC(N)=O)C(=O)N[C@@H]([C@@H](C)O)C(=O)N[C@@H](C)C(=O)N[C@@H]([C@@H](C)O)C(=O)N1)[C@@H](C)O)C(=O)N1CCC[C@H]1C(=O)N[C@@H](CO)C(=O)N[C@@H](CO)C(=O)N[C@H](C(=O)N[C@@H](CC(N)=O)C(=O)N[C@H](C(=O)NCC(=O)N[C@@H](CO)C(=O)N[C@@H](CC(N)=O)C(=O)N[C@H](C(=O)N[C@@H](Cc1ccc(O)cc1)C(N)=O)[C@@H](C)O)C(C)C)[C@@H](C)O
# notes: also called compound 43
# B3: N^-1-[(4S)-4-carboxy-4-(19-carboxynonadecanoylamino)butanoyl]-Gly[Arg1,Arg17,Pro21,Pro27,His35]-h-amylin (peptide)
# peptide: {C20 diacid-γGlu}-GRCNTATCATQRLANFLRHSSPNFGAIPSSTNVGSHTY-NH2
# modifications: disulfide 3-8
# SMILES: CC[C@H](C)[C@H](NC(=O)[C@H](C)NC(=O)CNC(=O)[C@H](Cc1ccccc1)NC(=O)[C@H](CC(N)=O)NC(=O)[C@@H]1CCCN1C(=O)[C@H](CO)NC(=O)[C@H](CO)NC(=O)[C@H](Cc1c[nH]cn1)NC(=O)[C@H](CCCNC(=N)N)NC(=O)[C@H](CC(C)C)NC(=O)[C@H](Cc1ccccc1)NC(=O)[C@H](CC(N)=O)NC(=O)[C@H](C)NC(=O)[C@H](CC(C)C)NC(=O)[C@H](CCCNC(=N)N)NC(=O)[C@H](CCC(N)=O)NC(=O)[C@@H](NC(=O)[C@H](C)NC(=O)[C@@H]1CSSC[C@H](NC(=O)[C@H](CCCNC(=N)N)NC(=O)CNC(=O)CC[C@H](NC(=O)CCCCCCCCCCCCCCCCCCC(=O)O)C(=O)O)C(=O)N[C@@H](CC(N)=O)C(=O)N[C@@H]([C@@H](C)O)C(=O)N[C@@H](C)C(=O)N[C@@H]([C@@H](C)O)C(=O)N1)[C@@H](C)O)C(=O)N1CCC[C@H]1C(=O)N[C@@H](CO)C(=O)N[C@@H](CO)C(=O)N[C@H](C(=O)N[C@@H](CC(N)=O)C(=O)N[C@H](C(=O)NCC(=O)N[C@@H](CO)C(=O)N[C@@H](Cc1c[nH]cn1)C(=O)N[C@H](C(=O)N[C@@H](Cc1ccc(O)cc1)C(N)=O)[C@@H](C)O)C(C)C)[C@@H](C)O
# notes: also called compound 47
# B4: N^-1-[(4S)-4-carboxy-4-(19-carboxynonadecanoylamino)butanoyl]-Gly[Arg1,Arg17,Pro21,Pro27]-h-amylin (peptide)
# peptide: {C20 diacid-γGlu}-GRCNTATCATQRLANFLRHSSPNFGAIPSSTNVGSNTY-NH2
# modifications: disulfide 3-8
# SMILES: CC[C@H](C)[C@H](NC(=O)[C@H](C)NC(=O)CNC(=O)[C@H](Cc1ccccc1)NC(=O)[C@H](CC(N)=O)NC(=O)[C@@H]1CCCN1C(=O)[C@H](CO)NC(=O)[C@H](CO)NC(=O)[C@H](Cc1c[nH]cn1)NC(=O)[C@H](CCCNC(=N)N)NC(=O)[C@H](CC(C)C)NC(=O)[C@H](Cc1ccccc1)NC(=O)[C@H](CC(N)=O)NC(=O)[C@H](C)NC(=O)[C@H](CC(C)C)NC(=O)[C@H](CCCNC(=N)N)NC(=O)[C@H](CCC(N)=O)NC(=O)[C@@H](NC(=O)[C@H](C)NC(=O)[C@@H]1CSSC[C@H](NC(=O)[C@H](CCCNC(=N)N)NC(=O)CNC(=O)CC[C@H](NC(=O)CCCCCCCCCCCCCCCCCCC(=O)O)C(=O)O)C(=O)N[C@@H](CC(N)=O)C(=O)N[C@@H]([C@@H](C)O)C(=O)N[C@@H](C)C(=O)N[C@@H]([C@@H](C)O)C(=O)N1)[C@@H](C)O)C(=O)N1CCC[C@H]1C(=O)N[C@@H](CO)C(=O)N[C@@H](CO)C(=O)N[C@H](C(=O)N[C@@H](CC(N)=O)C(=O)N[C@H](C(=O)NCC(=O)N[C@@H](CO)C(=O)N[C@@H](CC(N)=O)C(=O)N[C@H](C(=O)N[C@@H](Cc1ccc(O)cc1)C(N)=O)[C@@H](C)O)C(C)C)[C@@H](C)O
# notes: also called compound 46
# B5: N^ε-[2-[2-[2-[[(4S)-4-carboxy-4-(19-carboxynonadecanoylamino)butanoyl]amino]ethoxy]ethoxy]acetyl]Lys[Arg1,Arg17,Pro21,Pro27,His35]-h-amylin (peptide)
# peptide: K([AEEA-γGlu-C20 diacid])RCNTATCATQRLANFLRHSSPNFGAIPSSTNVGSHTY-NH2
# modifications: disulfide 3-8; N-terminus assumed
# SMILES: CC[C@H](C)[C@H](NC(=O)[C@H](C)NC(=O)CNC(=O)[C@H](Cc1ccccc1)NC(=O)[C@H](CC(N)=O)NC(=O)[C@@H]1CCCN1C(=O)[C@H](CO)NC(=O)[C@H](CO)NC(=O)[C@H](Cc1c[nH]cn1)NC(=O)[C@H](CCCNC(=N)N)NC(=O)[C@H](CC(C)C)NC(=O)[C@H](Cc1ccccc1)NC(=O)[C@H](CC(N)=O)NC(=O)[C@H](C)NC(=O)[C@H](CC(C)C)NC(=O)[C@H](CCCNC(=N)N)NC(=O)[C@H](CCC(N)=O)NC(=O)[C@@H](NC(=O)[C@H](C)NC(=O)[C@@H]1CSSC[C@H](NC(=O)[C@H](CCCNC(=N)N)NC(=O)[C@@H](N)CCCCNC(=O)COCCOCCNC(=O)CC[C@H](NC(=O)CCCCCCCCCCCCCCCCCCC(=O)O)C(=O)O)C(=O)N[C@@H](CC(N)=O)C(=O)N[C@@H]([C@@H](C)O)C(=O)N[C@@H](C)C(=O)N[C@@H]([C@@H](C)O)C(=O)N1)[C@@H](C)O)C(=O)N1CCC[C@H]1C(=O)N[C@@H](CO)C(=O)N[C@@H](CO)C(=O)N[C@H](C(=O)N[C@@H](CC(N)=O)C(=O)N[C@H](C(=O)NCC(=O)N[C@@H](CO)C(=O)N[C@@H](Cc1c[nH]cn1)C(=O)N[C@H](C(=O)N[C@@H](Cc1ccc(O)cc1)C(N)=O)[C@@H](C)O)C(C)C)[C@@H](C)O
# notes: also called compound 45
# B6: N^α1-[(4S)-4-carboxy-4-(19-carboxynonadecanoylamino)butanoyl]-[Glu14,Arg17,Pro21,Pro25,Pro28,Pro29]-h-amylin (peptide)
# peptide: {C20 diacid-γGlu}-KCNTATCATQRLAEFLRHSSPNFGPILPPTNVGSNTY-NH2
# modifications: disulfide 2-7
# SMILES: CC[C@H](C)[C@H](NC(=O)[C@@H]1CCCN1C(=O)CNC(=O)[C@H](Cc1ccccc1)NC(=O)[C@H](CC(N)=O)NC(=O)[C@@H]1CCCN1C(=O)[C@H](CO)NC(=O)[C@H](CO)NC(=O)[C@H](Cc1c[nH]cn1)NC(=O)[C@H](CCCNC(=N)N)NC(=O)[C@H](CC(C)C)NC(=O)[C@H](Cc1ccccc1)NC(=O)[C@H](CCC(=O)O)NC(=O)[C@H](C)NC(=O)[C@H](CC(C)C)NC(=O)[C@H](CCCNC(=N)N)NC(=O)[C@H](CCC(N)=O)NC(=O)[C@@H](NC(=O)[C@H](C)NC(=O)[C@@H]1CSSC[C@H](NC(=O)[C@H](CCCCN)NC(=O)CC[C@H](NC(=O)CCCCCCCCCCCCCCCCCCC(=O)O)C(=O)O)C(=O)N[C@@H](CC(N)=O)C(=O)N[C@@H]([C@@H](C)O)C(=O)N[C@@H](C)C(=O)N[C@@H]([C@@H](C)O)C(=O)N1)[C@@H](C)O)C(=O)N[C@@H](CC(C)C)C(=O)N1CCC[C@H]1C(=O)N1CCC[C@H]1C(=O)N[C@H](C(=O)N[C@@H](CC(N)=O)C(=O)N[C@H](C(=O)NCC(=O)N[C@@H](CO)C(=O)N[C@@H](CC(N)=O)C(=O)N[C@H](C(=O)N[C@@H](Cc1ccc(O)cc1)C(N)=O)[C@@H](C)O)C(C)C)[C@@H](C)O
# notes: also called compound 6
# B7: N^ε1-[2-[2-[2-[[(4S)-4-carboxy-4-(19-carboxynonadecanoylamino)butanoyl]amino]ethoxy]ethoxy]acetyl]-[Arg17,Pro21,Pro27]-h-amylin (peptide)
# peptide: K([AEEA-γGlu-C20 diacid])CNTATCATQRLANFLRHSSPNFGAIPSSTNVGSNTY-NH2
# modifications: disulfide 2-7; N-terminus assumed
# SMILES: CC[C@H](C)[C@H](NC(=O)[C@H](C)NC(=O)CNC(=O)[C@H](Cc1ccccc1)NC(=O)[C@H](CC(N)=O)NC(=O)[C@@H]1CCCN1C(=O)[C@H](CO)NC(=O)[C@H](CO)NC(=O)[C@H](Cc1c[nH]cn1)NC(=O)[C@H](CCCNC(=N)N)NC(=O)[C@H](CC(C)C)NC(=O)[C@H](Cc1ccccc1)NC(=O)[C@H](CC(N)=O)NC(=O)[C@H](C)NC(=O)[C@H](CC(C)C)NC(=O)[C@H](CCCNC(=N)N)NC(=O)[C@H](CCC(N)=O)NC(=O)[C@@H](NC(=O)[C@H](C)NC(=O)[C@@H]1CSSC[C@H](NC(=O)[C@@H](N)CCCCNC(=O)COCCOCCNC(=O)CC[C@H](NC(=O)CCCCCCCCCCCCCCCCCCC(=O)O)C(=O)O)C(=O)N[C@@H](CC(N)=O)C(=O)N[C@@H]([C@@H](C)O)C(=O)N[C@@H](C)C(=O)N[C@@H]([C@@H](C)O)C(=O)N1)[C@@H](C)O)C(=O)N1CCC[C@H]1C(=O)N[C@@H](CO)C(=O)N[C@@H](CO)C(=O)N[C@H](C(=O)N[C@@H](CC(N)=O)C(=O)N[C@H](C(=O)NCC(=O)N[C@@H](CO)C(=O)N[C@@H](CC(N)=O)C(=O)N[C@H](C(=O)N[C@@H](Cc1ccc(O)cc1)C(N)=O)[C@@H](C)O)C(C)C)[C@@H](C)O
# notes: also called compound 41
# Biological target: T1, human calcitonin receptor (human, UniProt P30988 25-474)
# T1 construct: whole, on cells; also called hCTR; hCT
# T1 sequence (looked up): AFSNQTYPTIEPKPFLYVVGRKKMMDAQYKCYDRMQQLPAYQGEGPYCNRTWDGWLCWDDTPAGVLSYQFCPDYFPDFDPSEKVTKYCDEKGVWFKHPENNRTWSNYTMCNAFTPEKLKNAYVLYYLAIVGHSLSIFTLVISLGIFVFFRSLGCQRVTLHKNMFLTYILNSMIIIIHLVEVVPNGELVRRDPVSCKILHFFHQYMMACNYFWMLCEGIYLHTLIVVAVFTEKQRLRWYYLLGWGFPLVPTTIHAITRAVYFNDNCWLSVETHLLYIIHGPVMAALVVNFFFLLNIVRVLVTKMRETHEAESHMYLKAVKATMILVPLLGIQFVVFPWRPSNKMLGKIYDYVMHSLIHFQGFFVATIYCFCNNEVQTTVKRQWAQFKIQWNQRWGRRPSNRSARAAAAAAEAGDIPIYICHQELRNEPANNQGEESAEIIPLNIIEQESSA
# Experiment: SPA competition with 125I-calcitonin, membranes of BHK hCTR cells (Assay VII)
# Summary of the method: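 BHK hCTR membranes 35 ng/μL + SPA beads 0.05 mg/well; buffer 50 mM Hepes pH 7.4, 1 mM CaCl2, 5 mM MgCl₂, 0.1% OA, 0.02% Tween20. 120 min, 25° C., shaking. Scintillation count; IC50 by one-site binding competition.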
row,Binder,IC50 [nM]
1,B1,102
2,B2,2.64
3,B3,15.5
4,B4,9.53
5,B5,14.8
6,B6,19.9
7,B7,21.3
